Holding throughout (assay): fluorescence polarisation; 37 °C, after the 25 °C reading ramped over 7 min to 37 °C and 2 min incubation; unlabeled Rb^P against 1.5 nM TMR-E2F1^TD or 7.5 nM TMR-E7^LxCxE; 25 mM Tris pH 8.0, 200 mM NaCl, 1 mM DTT, 0.1% Tween-20; apparent Kd
Common to all, as to conditions: both partners purified

For one experiment, the target named is T1, Rb^P R668H (human, UniProt P06400 380-788, R668H).
T1 construct: also called variant 52
T1 sequence (looked up): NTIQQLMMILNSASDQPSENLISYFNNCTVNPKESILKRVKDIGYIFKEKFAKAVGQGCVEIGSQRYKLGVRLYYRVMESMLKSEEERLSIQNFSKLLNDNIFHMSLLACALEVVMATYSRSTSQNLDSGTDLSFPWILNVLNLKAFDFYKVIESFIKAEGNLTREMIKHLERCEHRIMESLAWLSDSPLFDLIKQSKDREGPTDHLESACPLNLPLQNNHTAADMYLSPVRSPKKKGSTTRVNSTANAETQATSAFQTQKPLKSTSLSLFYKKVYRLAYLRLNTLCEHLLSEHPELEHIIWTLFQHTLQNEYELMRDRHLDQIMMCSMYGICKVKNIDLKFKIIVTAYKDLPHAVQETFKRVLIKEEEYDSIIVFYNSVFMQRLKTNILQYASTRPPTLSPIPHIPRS

For another experiment, the target named is T2, Rb^P Y606C (human, UniProt P06400 380-788, Y606C).
T2 construct: also called variant 37
T2 sequence (looked up): T1 sequence (looked up) with Y227C, H289R

The target of the next experiment is T3, Rb^P A488V (human, UniProt P06400 380-788, A488V).
T3 construct: also called variant 14
T3 sequence (looked up): T1 sequence (looked up) with A109V, H289R

The target of a further experiment is T4, Rb^P H686Y (human, UniProt P06400 380-788, H686Y).
T4 construct: also called variant 58
T4 sequence (looked up): T1 sequence (looked up) with H289R, H307Y

The next experiment deals with T5, Rb^P P595L (human, UniProt P06400 380-788, P595L).
T5 construct: also called variant 35
T5 sequence (looked up): T1 sequence (looked up) with P216L, H289R

Changes are numbered by the printed parent chain. Numbers in names are those of the source. No end group written: not given here. TMR = tetramethyl rhodamine dye

B1: TMR-E2F1^TD, peptide of the E2F1 transactivation domain (peptide)
peptide: {TMR}-GEGIRDLFDCDFGDLTPLD
notes: also called E2F^TD; source: synthetic peptide, bought: GenScript
As for B1, the Kd came to 22 nM in the experiment with Rb^P R668H; 27 nM with Rb^P Y606C; 78 nM with Rb^P A488V; 35 nM in the experiment with Rb^P H686Y; 83 nM with Rb^P P595L.

B2: TMR-E7^LxCxE, LxCxE peptide of the E7 oncoprotein from HPV (peptide)
peptide: DLYCYEQLN
modifications: also: TMR label, position not given here
notes: source: synthetic peptide, bought: GenScript
Consider B2, for which the Kd in the experiment with Rb^P R668H was 28 nM; in the experiment with Rb^P Y606C, 23 nM; with Rb^P A488V it was 19 nM; with Rb^P H686Y, 14 nM; with Rb^P P595L it was 32 nM.
